Experimental data published in PMC5992322 (Cell, 2017).
Values belong to the binder of their own block, whether it stands above or below them.

B3: Nup192(2-960) (domain or fragment, S. cerevisiae, UniProt P47054 2-960, looked up)
chain: KWSAIPFQTLYRSIESGEFDFDLFKEVLPDLQNLNLNTDKLKNNASRSQLEKGEIELSDGSTFKVNQEFIFEAISLSDELNLDEIVACELILSGDTTANNGKVQYFLRRQYILQIVSFIVNCFHEDTELYQELIKNGALVSNILSAFKFIHTQLSEIKQQINKAQILENYNALFQQNIKFRRDFLLREYDILSQILYGLVDKGAIMKNKDFILSLLHHVSELDSNDFFIIYYTPAFFHLFASLRVLPDADVKLLHSQFMKDLKDDSIYTKPVKVALIFIFFAYFIGWCKEDPKRRADTMDFKTDVDEPMTSAVELGAIEQILIFAADTSIVEQDKSMELFYDIRSLLERHIPRLIPKQLLDDEKIFSQTTNSTYNPASATDNMSGRGLWNPSYPGMMSTTGTARLNSMPNNVNEYSYTTIVLSDQTQEFFLSSFDDVLQTIITDCAFLLTKIKDAEEDSLLSGEDLTLDDISLKADLERFFLSIYFFYASRPEYSCTFWSDKESNAYGFIEWCSRCNDNLMRSCFYLMVSSLSFGPENALNVYHYFGENSSISWKNIAQCLSDYTKKISNFNSSLHKRQQFSESTHNDIDSTAVALEEGLNEEAVIFLSSLLTLVGSVTYQVDEDVKSSLSKVFSDVLFEFTKINTPLVGAAFKVISNLVPKLESSRTKFWSFLDSLIFKDSSLNYSSESYRNAFTNVLTKYSDVLGFLQLFHNLISIHSRENNSEYMVFGKLAFPTRLGQGYRKVGIWPYFDYIFNDILAHVDQIVDIRNKRAVQLPILKIIYTGLCSFDYSVILNSIPAAANLDALVDCENFFNYVQECPAIPIFNYIFTEKIYKSIFNVVDVGVDQLSIELEGGKNQAELLQLAVKIINKVLDYQETYVEELFPIVKKHGKTDYFLPKNYSLHGLRSFYDAIFFNIPLVAHLGLYVGVDDQILATNSLRILAKLSERSNGSVASLS

Assays:
Nup192(2-960) = target: B3; test: BLI
[1] = target: Nup84-Nup133(521-1157) complex (S. cerevisiae, UniProt P52891 1-726; P36161 521-1157); test: pull-down
Nup84-Nup133(521-1157) complex, sequence (P52891 whole entry, chain 1 of 2): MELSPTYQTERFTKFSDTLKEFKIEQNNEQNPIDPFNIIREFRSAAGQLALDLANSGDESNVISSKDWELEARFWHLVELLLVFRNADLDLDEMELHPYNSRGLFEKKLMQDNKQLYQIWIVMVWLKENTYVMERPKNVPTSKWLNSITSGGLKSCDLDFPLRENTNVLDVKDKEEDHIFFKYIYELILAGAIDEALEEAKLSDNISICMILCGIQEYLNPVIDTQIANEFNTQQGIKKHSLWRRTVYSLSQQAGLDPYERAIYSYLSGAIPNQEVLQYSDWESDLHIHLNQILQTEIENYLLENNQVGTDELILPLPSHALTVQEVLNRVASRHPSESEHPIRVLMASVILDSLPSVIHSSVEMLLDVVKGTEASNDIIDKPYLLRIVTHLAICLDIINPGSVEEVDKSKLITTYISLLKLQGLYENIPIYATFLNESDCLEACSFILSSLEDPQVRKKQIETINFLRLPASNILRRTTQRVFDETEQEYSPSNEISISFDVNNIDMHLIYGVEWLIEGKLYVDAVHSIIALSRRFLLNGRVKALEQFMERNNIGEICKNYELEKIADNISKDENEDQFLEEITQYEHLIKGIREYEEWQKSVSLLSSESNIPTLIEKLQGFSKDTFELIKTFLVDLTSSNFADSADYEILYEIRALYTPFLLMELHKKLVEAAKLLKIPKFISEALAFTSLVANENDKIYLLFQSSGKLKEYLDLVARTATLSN
Nup84-Nup133(521-1157) complex, sequence (P36161 521-1157, chain 2 of 2): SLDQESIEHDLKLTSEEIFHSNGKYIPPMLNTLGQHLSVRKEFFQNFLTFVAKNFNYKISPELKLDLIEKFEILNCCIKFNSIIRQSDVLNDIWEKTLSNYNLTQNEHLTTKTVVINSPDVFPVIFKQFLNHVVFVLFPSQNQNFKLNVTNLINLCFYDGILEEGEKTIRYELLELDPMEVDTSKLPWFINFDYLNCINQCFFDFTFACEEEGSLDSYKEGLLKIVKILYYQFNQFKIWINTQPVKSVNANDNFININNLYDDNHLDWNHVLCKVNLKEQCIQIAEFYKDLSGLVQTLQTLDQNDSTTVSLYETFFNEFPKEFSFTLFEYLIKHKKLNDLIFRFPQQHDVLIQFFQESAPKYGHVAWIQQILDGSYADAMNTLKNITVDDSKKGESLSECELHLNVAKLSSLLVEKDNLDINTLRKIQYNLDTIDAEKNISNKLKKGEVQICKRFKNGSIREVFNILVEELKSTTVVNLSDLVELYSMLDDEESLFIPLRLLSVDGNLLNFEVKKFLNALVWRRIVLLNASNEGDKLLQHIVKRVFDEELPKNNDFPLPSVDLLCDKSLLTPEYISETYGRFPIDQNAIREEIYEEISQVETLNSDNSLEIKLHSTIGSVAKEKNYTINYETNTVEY

His6-Avitag-MBP-Nup116 = His6-Avitag-MBP-Nup116 (S. cerevisiae, UniProt Q02630 1-1113, biotin on the Avitag); test: BLI

B1: His6-Avitag-MBP-Nup116(718-1113) (domain or fragment, S. cerevisiae, UniProt Q02630 718-1113, looked up)
chain: SQSMAQSQNALQQQQQQQRLQIQNNNPYGTNELFSKATVTNTVSYPIQPSATKIKADERKKASLTNAYKMIPKTLFTAKLKTNNSVMDKAQIKVDPKLSISIDKKNNQIAISNQQEENLDESILKASELLFNPDKRSFKNLINNRKMLIASEEKNNGSQNNDMNFKSKSEEQETILGKPKMDEKETANGGERMVLSSKNDGEDSATKHHSRNMDEENKENVADLQKQEYSEDDKKAVFADVAEKDASFINENYYISPSLDTLSSYSLLQLRKVPHLVVGHKSYGKIEFLEPVDLAGIPLTSLGGVIITFEPKTCIIYANLPNRPKRGEGINVRARITCFNCYPVDKSTRKPIKDPNHQLVKRHIERLKKNPNSKFESYDADSGTYVFIVNHAAEQT
modifications: biotin on the Avitag
binding result (Nup192(2-960)): binds

B2: GST-Nup100(1-307) (domain or fragment, S. cerevisiae, UniProt Q02629 1-307, looked up)
chain: MFGNNRPMFGGSNLSFGSNTSSFGGQQSQQPNSLFGNSNNNNNSTSNNAQSGFGGFTSAAGSNSNSLFGNNNTQNNGAFGQSMGATQNSPFGSLNSSNASNGNTFGGSSSMGSFGGNTNNAFNNNSNSTNSPFGFNKPNTGGTLFGSQNNNSAGTSSLFGGQSTSTTGTFGNTGSSFGTGLNGNGSNIFGAGNNSQSNTTGSLFGNQQSSAFGTNNQQGSLFGQQSQNTNNAFGNQNQLGGSSFGSKPVGSGSLFGQSNNTLGNTTNNRNGLFGQMNSSNQGSSNSGLFGQNSMNSSTQGVFGQNNN
binding result [1]: binds

Binder: B3
KD of the dominant of the two binding modes (His6-Avitag-MBP-Nup116): 0.5 µM
fold lower KD than with the Nup116 variant lacking the GLFG-repeats (His6-Avitag-MBP-Nup116): ~15 fold

B6: GST-Nup100(1-610) (domain or fragment, S. cerevisiae, UniProt Q02629 1-610, looked up)
chain: MFGNNRPMFGGSNLSFGSNTSSFGGQQSQQPNSLFGNSNNNNNSTSNNAQSGFGGFTSAAGSNSNSLFGNNNTQNNGAFGQSMGATQNSPFGSLNSSNASNGNTFGGSSSMGSFGGNTNNAFNNNSNSTNSPFGFNKPNTGGTLFGSQNNNSAGTSSLFGGQSTSTTGTFGNTGSSFGTGLNGNGSNIFGAGNNSQSNTTGSLFGNQQSSAFGTNNQQGSLFGQQSQNTNNAFGNQNQLGGSSFGSKPVGSGSLFGQSNNTLGNTTNNRNGLFGQMNSSNQGSSNSGLFGQNSMNSSTQGVFGQNNNQMQINGNNNNSLFGKANTFSNSASGGLFGQNNQQQGSGLFGQNSQTSGSSGLFGQNNQKQPNTFTQSNTGIGLFGQNNNQQQQSTGLFGAKPAGTTGSLFGGNSSTQPNSLFGTTNVPTSNTQSQQGNSLFGATKLTNMPFGGNPTANQSGSGNSLFGTKPASTTGSLFGNNTASTTVPSTNGLFGNNANNSTSTTNTGLFGAKPDSQSKPALGGGLFGNSNSNSSTIGQNKPVFGGTTQNTGLFGATGTNSSAVGSTGKLFGQNNNTLNVGTQNVPPVNNTTQNALLGTTAVPSLQQAPVTN
binding result [1]: binds

Continued, values first:

binding result (His6-Avitag-MBP-Nup116): binds
B4: Nup170(980-1502) (domain or fragment, S. cerevisiae, UniProt P38181 980-1502, looked up)
chain: SIEYTATALQERCGSFCSASDILGFRAIEHLRRAKEIGLRNYDSLNYHLKNATALLEQIVDDLSIEKLKEAVSMMLSVNYYPKSIEFLLNIANSMDKGKLACQYVANGFLENDDRKQYYDKRILVYDLVFDTLIKVDELAEKKQSSKTQNQISISNDDEVKLRQKSYEAALKYNDRLFHYHMYDWLVSQNREEKLLDIETPFILPYLMEKAGSSLKISNILWVYYSRRSKFFESAEILYRLATSNFDITLFERIEFLSRANGFCNSVSPLSQKQRIVQLASRIQDACEVAGIQGDILSLVYTDARIDSAIKDELIKTLDGKILSTSELFNDFAVPLSYHEIALFIFKIADFRDHEVIMAKWDELFQSLRMEFNNTGKKEDSMNFINLLSNVLIKIGKNVQDSEFIFPIFELFPIVCNFFYETLPKEHIVSGSIVSIFITAGVSFNKMYYILKELIETSDSDNSVFNKEMTWLIHEWYKSDRKFRDIISYNDIIHLKEYKIDNDPIEKYVKNSGNNLGICFYKE

binding result [1]: binds
B5: GST-Nup116(348-458) (domain or fragment, S. cerevisiae, UniProt Q02630 348-458, looked up)
chain: GALFGAKPASGGLFGQSAGSKAFGMNTNPTGTTGGLFGQTNQQQSGGGLFGQQQNSNAGGLFGQNNQSQNQSGLFGQQNSSNAFGQPQQQGGLFGSKPAGGLFGQQQGAST

binding result (His6-Avitag-MBP-Nup116): binds
B7: ScKap95 (natural protein, S. cerevisiae, UniProt Q06142 1-861, looked up)
chain: MSTAEFAQLLENSILSPDQNIRLTSETQLKKLSNDNFLQFAGLSSQVLIDENTKLEGRILAALTLKNELVSKDSVKTQQFAQRWITQVSPEAKNQIKTNALTALVSIEPRIANAAAQLIAAIADIELPHGAWPELMKIMVDNTGAEQPENVKRASLLALGYMCESADPQSQALVSSSNNILIAIVQGAQSTETSKAVRLAALNALADSLIFIKNNMEREGERNYLMQVVCEATQAEDIEVQAAAFGCLCKIMSLYYTFMKPYMEQALYALTIATMKSPNDKVASMTVEFWSTICEEEIDIAYELAQFPQSPLQSYNFALSSIKDVVPNLLNLLTRQNEDPEDDDWNVSMSAGACLQLFAQNCGNHILEPVLEFVEQNITADNWRNREAAVMAFGSIMDGPDKVQRTYYVHQALPSILNLMNDQSLQVKETTAWCIGRIADSVAESIDPQQHLPGVVQACLIGLQDHPKVATNCSWTIINLVEQLAEATPSPIYNFYPALVDGLIGAANRIDNEFNARASAFSALTTMVEYATDTVAETSASISTFVMDKLGQTMSVDENQLTLEDAQSLQELQSNILTVLAAVIRKSPSSVEPVADMLMGLFFRLLEKKDSAFIEDDVFYAISALAASLGKGFEKYLETFSPYLLKALNQVDSPVSITAVGFIADISNSLEEDFRRYSDAMMNVLAQMISNPNARRELKPAVLSVFGDIASNIGADFIPYLNDIMALCVAAQNTKPENGTLEALDYQIKVLEAVLDAYVGIVAGLHDKPEALFPYVGTIFQFIAQVAEDPQLYSEDATSRAAVGLIGDIAAMFPDGSIKQFYGQDWVIDYIKRTRSGQLFSQATKDTARWAREQQKRQLSL
